Assay results taken from patent US20220402983A1 (Janssen / Centocor, published 2022).
*1 amine or outer side, *2 acyl side, *3 side chain or, on linkers, in order; H or OH if unused. Bridges are numbered along the chain shown (N, C = ends). [ ]: non-standard residue; d: D form. The star is where a group is joined. bMe2Nal(2S,3R) = beta-methyl-2-naphthylalanine (2S,3R), C[C@H](c1ccc2ccccc2c1)[C@H](N[*:1])C(=O)[*:2]; 4AcDPhe = D-(4-acyl)phenylalanine, CC(=O)c1ccc(C[C@@H](N[*:1])C(=O)[*:2])cc1; Trp(7-Me) = Cc1cccc2c(C[C@H](N)C(=O)O)c[nH]c12; Phe(3R-Me) = C[C@H](c1ccccc1)[C@H](N)C(=O)O; dPhe(4-NH2) = Nc1ccc(C[C@@H](N)C(=O)O)cc1; Phe(4-NH2) = Nc1ccc(C[C@H](N)C(=O)O)cc1; Ac6c(4,4-F2) = NC1(C(=O)O)CCC(F)(F)CC1; 2Nal = N[C@@H](Cc1ccc2ccccc2c1)C(=O)O; AEF = NCCOc1ccc(C[C@H](N)C(=O)O)cc1; αMeF = C[C@](N)(Cc1ccccc1)C(=O)O; αMeE = C[C@](N)(CCC(=O)O)C(=O)O; Cit = NC(=O)NCCC[C@H](N)C(=O)O; Pen = CC(C)(S)[C@H](N)C(=O)O; αMeK = C[C@](N)(CCCCN)C(=O)O; αMeC = C[C@](N)(CS)C(=O)O; Ac6c = NC1(C(=O)O)CCCCC1; Thp = NC1(C(=O)O)CCOCC1; Abu = CC[C@H](N)C(=O)O; Ac3c = NC1(C(=O)O)CC1; BH = not defined here; Boc = CC(C)(C)OC(=O)*; Aib = CC(C)(N)C(=O)O; Propionyl = CCC(=O)*

T1: human IL-23R (interleukin-23 receptor) (human, UniProt Q5VWK5 24-629)
T1 sequence (looked up): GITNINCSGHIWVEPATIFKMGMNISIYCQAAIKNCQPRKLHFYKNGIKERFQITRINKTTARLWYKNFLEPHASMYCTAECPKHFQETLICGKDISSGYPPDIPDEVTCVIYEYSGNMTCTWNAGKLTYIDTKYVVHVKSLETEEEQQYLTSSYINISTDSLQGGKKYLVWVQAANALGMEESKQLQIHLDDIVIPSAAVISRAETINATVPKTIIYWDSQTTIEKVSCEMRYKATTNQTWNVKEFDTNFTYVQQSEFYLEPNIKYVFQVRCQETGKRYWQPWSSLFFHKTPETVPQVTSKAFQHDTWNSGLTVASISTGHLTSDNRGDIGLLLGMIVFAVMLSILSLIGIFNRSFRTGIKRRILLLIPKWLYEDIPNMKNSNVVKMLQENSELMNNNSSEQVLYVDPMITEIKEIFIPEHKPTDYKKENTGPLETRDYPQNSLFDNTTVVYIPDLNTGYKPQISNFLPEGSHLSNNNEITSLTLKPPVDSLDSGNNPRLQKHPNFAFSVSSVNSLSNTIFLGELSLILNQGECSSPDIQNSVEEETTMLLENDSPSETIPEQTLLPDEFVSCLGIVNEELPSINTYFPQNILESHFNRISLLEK


Target: T1, human IL-23R (interleukin-23 receptor)
Experiment: cell-based or functional assay

Binder	PBMC pSTAT3 IC50 (nM)	pStat3 HTRF (nM), IC50, DB cells IL23R pSTAT3 cell assay [nM]
Ac-[dR][Pen]NT[Trp(7-Me)]K(Ac)[Pen][AEF][2Nal][Ac6c(4,4-F2)]EN[Thp]-NH2 (disulfide 2-7; SMILES CC(=O)NCCCC[C@@H]1NC(=O)[C@H](Cc2c[nH]c3c(C)cccc23)NC(=O)[C@H]([C@@H](C)O)NC(=O)[C@H](CC(N)=O)NC(=O)[C@@H](NC(=O)[C@@H](CCCNC(=N)N)NC(C)=O)C(C)(C)SSC(C)(C)[C@@H](C(=O)N[C@@H](Cc2ccc(OCCN)cc2)C(=O)N[C@@H](Cc2ccc3ccccc3c2)C(=O)NC2(C(=O)N[C@@H](CCC(=O)O)C(=O)N[C@@H](CC(N)=O)C(=O)NC3(C(N)=O)CCOCC3)CCC(F)(F)CC2)NC1=O) [Compound No. 303]	1.3	
H-[dR][Pen]NT[Trp(7-Me)]K(Ac)[Pen][AEF](Boc)[2Nal][Thp]EN[αMeF]-NH2 (disulfide 2-7; SMILES CC(=O)NCCCC[C@@H]1NC(=O)[C@H](Cc2c[nH]c3c(C)cccc23)NC(=O)[C@H]([C@@H](C)O)NC(=O)[C@H](CC(N)=O)NC(=O)[C@@H](NC(=O)[C@H](N)CCCNC(=N)N)C(C)(C)SSC(C)(C)[C@@H](C(=O)N[C@@H](Cc2ccc(OCCNC(=O)OC(C)(C)C)cc2)C(=O)N[C@@H](Cc2ccc3ccccc3c2)C(=O)NC2(C(=O)N[C@@H](CCC(=O)O)C(=O)N[C@@H](CC(N)=O)C(=O)N[C@@](C)(Cc3ccccc3)C(N)=O)CCOCC2)NC1=O) [Compound No. 305]	17	
Ac-[dR][Pen]NT[Trp(7-Me)]K(Ac)[Pen][AEF](Ac)[2Nal][Ac3c]EN[Thp]-NH2 (disulfide 2-7; SMILES CC(=O)NCCCC[C@@H]1NC(=O)[C@H](Cc2c[nH]c3c(C)cccc23)NC(=O)[C@H]([C@@H](C)O)NC(=O)[C@H](CC(N)=O)NC(=O)[C@@H](NC(=O)[C@@H](CCCNC(=N)N)NC(C)=O)C(C)(C)SSC(C)(C)[C@@H](C(=O)N[C@@H](Cc2ccc(OCCNC(C)=O)cc2)C(=O)N[C@@H](Cc2ccc3ccccc3c2)C(=O)NC2(C(=O)N[C@@H](CCC(=O)O)C(=O)N[C@@H](CC(N)=O)C(=O)NC3(C(N)=O)CCOCC3)CC2)NC1=O) [Compound No. 308]	8	
Ac-[dR][Abu]QTWQC[AEF][2Nal][Ac6c][αMeE]NF[Aib][αMeK]-NH2 (thioether 2-7) [Compound No. 301]	24	
Propionyl-[dR][Pen]QTWQ[Pen][AEF][bMe2Nal(2S,3R)][Thp]EN[Thp]-NH2 (disulfide 2-7; SMILES CCC(=O)N[C@H](CCCNC(=N)N)C(=O)N[C@@H]1C(=O)N[C@@H](CCC(N)=O)C(=O)N[C@@H]([C@@H](C)O)C(=O)N[C@@H](Cc2c[nH]c3ccccc23)C(=O)N[C@@H](CCC(N)=O)C(=O)N[C@H](C(=O)N[C@@H](Cc2ccc(OCCN)cc2)C(=O)N[C@H](C(=O)NC2(C(=O)N[C@@H](CCC(=O)O)C(=O)N[C@@H](CC(N)=O)C(=O)NC3(C(N)=O)CCOCC3)CCOCC2)[C@H](C)c2ccc3ccccc3c2)C(C)(C)SSC1(C)C) [Compound No. 307]	52	
Ac-[dR][Pen]NT[Trp(7-Me)]K(Ac)[Pen][AEF][2Nal][Ac3c]ENH[4AcDPhe]-NH2 (disulfide 2-7; SMILES CC(=O)NCCCC[C@@H]1NC(=O)[C@H](Cc2c[nH]c3c(C)cccc23)NC(=O)[C@H]([C@@H](C)O)NC(=O)[C@H](CC(N)=O)NC(=O)[C@@H](NC(=O)[C@@H](CCCNC(=N)N)NC(C)=O)C(C)(C)SSC(C)(C)[C@@H](C(=O)N[C@@H](Cc2ccc(OCCN)cc2)C(=O)N[C@@H](Cc2ccc3ccccc3c2)C(=O)NC2(C(=O)N[C@@H](CCC(=O)O)C(=O)N[C@@H](CC(N)=O)C(=O)N[C@@H](Cc3c[nH]cn3)C(=O)N[C@H](Cc3ccc(C(C)=O)cc3)C(N)=O)CC2)NC1=O) [Compound No. 316]	2.1	
XNTXKXXXKKNF (MeCO-Pen-N-T-7MeTrp-K(Ac)-Pen-AEF-2Nal-aMeK-K(Ac)-N-bMePhe(S,R)-CONH2; cyclized: Pen-Pen disulfide bond) [Compound No. 312]	90	

The next lines start with the values.

PBMC pSTAT3 IC50 (nM)	pStat3 HTRF (nM), IC50, DB cells IL23R pSTAT3 cell assay [nM]	Binder
2		Ac-[dR][Pen]NT[Trp(7-Me)]K(Ac)[Pen][AEF][2Nal][Ac3c]ENH[dPhe(4-NH2)]-NH2 (disulfide 2-7; SMILES CC(=O)NCCCC[C@@H]1NC(=O)[C@H](Cc2c[nH]c3c(C)cccc23)NC(=O)[C@H]([C@@H](C)O)NC(=O)[C@H](CC(N)=O)NC(=O)[C@@H](NC(=O)[C@@H](CCCNC(=N)N)NC(C)=O)C(C)(C)SSC(C)(C)[C@@H](C(=O)N[C@@H](Cc2ccc(OCCN)cc2)C(=O)N[C@@H](Cc2ccc3ccccc3c2)C(=O)NC2(C(=O)N[C@@H](CCC(=O)O)C(=O)N[C@@H](CC(N)=O)C(=O)N[C@@H](Cc3c[nH]cn3)C(=O)N[C@H](Cc3ccc(N)cc3)C(N)=O)CC2)NC1=O) [Compound No. 315]
290		Ac-[Pen]NT[Trp(7-Me)]K(Ac)[Pen][4PipPhe][2Nal][αMeK]K(Ac)N[αMeF]-NH2 (disulfide 1-6) [Compound No. 311]
21		Ac-[dR][Pen]NT[Trp(7-Me)]K(Ac)[Pen][AEF][2Nal][Thp]EN[Phe(3R-Me)]-NH2 (disulfide 2-7; SMILES CC(=O)NCCCC[C@@H]1NC(=O)[C@H](Cc2c[nH]c3c(C)cccc23)NC(=O)[C@H]([C@@H](C)O)NC(=O)[C@H](CC(N)=O)NC(=O)[C@@H](NC(=O)[C@@H](CCCNC(=N)N)NC(C)=O)C(C)(C)SSC(C)(C)[C@@H](C(=O)N[C@@H](Cc2ccc(OCCN)cc2)C(=O)N[C@@H](Cc2ccc3ccccc3c2)C(=O)NC2(C(=O)N[C@@H](CCC(=O)O)C(=O)N[C@@H](CC(N)=O)C(=O)N[C@H](C(N)=O)[C@H](C)c3ccccc3)CCOCC2)NC1=O) [Compound No. 313]
8		Ac-[dR][Pen]NT[Trp(7-Me)]K(Ac)[Pen][AEF][2Nal][Ac3c]ENHX-NH2 (disulfide 2-7; not fully specified (residue 14); printed as MeCO-F[(D)Arg]-Pen-N -T-7MeW-K(Ac)-Pen-AEF-2Nal-Acpx-E-N-H-paf-CONH2) [Compound No. 309]
9.9		Ac-[dR]CNT[Trp(7-Me)]K(Ac)[αMeC][AEF][2Nal][Ac3c]EN[Thp]-NH2 (disulfide 2-7; SMILES CC(=O)NCCCC[C@@H]1NC(=O)[C@H](Cc2c[nH]c3c(C)cccc23)NC(=O)[C@H]([C@@H](C)O)NC(=O)[C@H](CC(N)=O)NC(=O)[C@@H](NC(=O)[C@@H](CCCNC(=N)N)NC(C)=O)CSSC[C@@](C)(C(=O)N[C@@H](Cc2ccc(OCCN)cc2)C(=O)N[C@@H](Cc2ccc3ccccc3c2)C(=O)NC2(C(=O)N[C@@H](CCC(=O)O)C(=O)N[C@@H](CC(N)=O)C(=O)NC3(C(N)=O)CCOCC3)CC2)NC1=O) [Compound No. 310]
	0.637	Ac-[Pen]NT[Trp(7-Me)][Cit][Pen][AEF][2Nal][αMeK]K(Ac)N[Aib][dY]-NH2 (disulfide 1-6; SMILES CC(=O)NCCCC[C@H](NC(=O)[C@](C)(CCCCN)NC(=O)[C@H](Cc1ccc2ccccc2c1)NC(=O)[C@H](Cc1ccc(OCCN)cc1)NC(=O)[C@H]1NC(=O)[C@H](CCCNC(N)=O)NC(=O)[C@H](Cc2c[nH]c3c(C)cccc23)NC(=O)[C@H]([C@@H](C)O)NC(=O)[C@H](CC(N)=O)NC(=O)[C@@H](NC(C)=O)C(C)(C)SSC1(C)C)C(=O)N[C@@H](CC(N)=O)C(=O)NC(C)(C)C(=O)N[C@H](Cc1ccc(O)cc1)C(N)=O) [Compound No. 202]
7		Ac-[Pen]NT[Trp(7-Me)][Cit][Pen][AEF][2Nal][αMeK]K(Ac)N[Aib]-NH2 (disulfide 1-6; SMILES CC(=O)NCCCC[C@H](NC(=O)[C@](C)(CCCCN)NC(=O)[C@H](Cc1ccc2ccccc2c1)NC(=O)[C@H](Cc1ccc(OCCN)cc1)NC(=O)[C@H]1NC(=O)[C@H](CCCNC(N)=O)NC(=O)[C@H](Cc2c[nH]c3c(C)cccc23)NC(=O)[C@H]([C@@H](C)O)NC(=O)[C@H](CC(N)=O)NC(=O)[C@@H](NC(C)=O)C(C)(C)SSC1(C)C)C(=O)N[C@@H](CC(N)=O)C(=O)NC(C)(C)C(N)=O) [Compound No. 302]
9.6		Ac-[dR][Pen]NT[Trp(7-Me)][Phe(4-NH2)](Ac)[Pen][AEF][2Nal][Ac3c]EN[Thp]-NH2 (disulfide 2-7; SMILES CC(=O)Nc1ccc(C[C@@H]2NC(=O)[C@H](Cc3c[nH]c4c(C)cccc34)NC(=O)[C@H]([C@@H](C)O)NC(=O)[C@H](CC(N)=O)NC(=O)[C@@H](NC(=O)[C@@H](CCCNC(=N)N)NC(C)=O)C(C)(C)SSC(C)(C)[C@@H](C(=O)N[C@@H](Cc3ccc(OCCN)cc3)C(=O)N[C@@H](Cc3ccc4ccccc4c3)C(=O)NC3(C(=O)N[C@@H](CCC(=O)O)C(=O)N[C@@H](CC(N)=O)C(=O)NC4(C(N)=O)CCOCC4)CC3)NC2=O)cc1) [Compound No. 306]
75		Ac-[dR][Pen]NT[Trp(7-Me)]K(Ac)[Pen][AEF](BH)[2Nal][Thp]EN[αMeF]-NH2 (disulfide 2-7; reading uncertain) [Compound No. 314]
